T1: GLUT4 (rat, UniProt P19357 1-509)
T1 sequence (looked up): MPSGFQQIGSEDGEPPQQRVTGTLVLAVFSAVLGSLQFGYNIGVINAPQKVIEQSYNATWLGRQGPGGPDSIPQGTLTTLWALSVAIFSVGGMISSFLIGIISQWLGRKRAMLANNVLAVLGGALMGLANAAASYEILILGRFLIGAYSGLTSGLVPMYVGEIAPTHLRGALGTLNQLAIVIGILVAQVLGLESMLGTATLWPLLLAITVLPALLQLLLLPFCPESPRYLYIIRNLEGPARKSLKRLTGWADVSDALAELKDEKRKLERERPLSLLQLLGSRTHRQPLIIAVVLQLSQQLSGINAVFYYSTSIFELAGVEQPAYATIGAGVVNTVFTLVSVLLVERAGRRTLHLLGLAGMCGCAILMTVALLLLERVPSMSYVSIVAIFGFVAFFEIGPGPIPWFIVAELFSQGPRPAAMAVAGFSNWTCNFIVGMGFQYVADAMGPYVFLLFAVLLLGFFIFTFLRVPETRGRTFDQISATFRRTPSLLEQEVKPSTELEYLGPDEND


Key:
Test in all cases: cell-based or functional assay
[1] = biological target: Leptin Receptor, long form (UniProt P48357)
Leptin Receptor, long form, sequence (P48357 22-1165): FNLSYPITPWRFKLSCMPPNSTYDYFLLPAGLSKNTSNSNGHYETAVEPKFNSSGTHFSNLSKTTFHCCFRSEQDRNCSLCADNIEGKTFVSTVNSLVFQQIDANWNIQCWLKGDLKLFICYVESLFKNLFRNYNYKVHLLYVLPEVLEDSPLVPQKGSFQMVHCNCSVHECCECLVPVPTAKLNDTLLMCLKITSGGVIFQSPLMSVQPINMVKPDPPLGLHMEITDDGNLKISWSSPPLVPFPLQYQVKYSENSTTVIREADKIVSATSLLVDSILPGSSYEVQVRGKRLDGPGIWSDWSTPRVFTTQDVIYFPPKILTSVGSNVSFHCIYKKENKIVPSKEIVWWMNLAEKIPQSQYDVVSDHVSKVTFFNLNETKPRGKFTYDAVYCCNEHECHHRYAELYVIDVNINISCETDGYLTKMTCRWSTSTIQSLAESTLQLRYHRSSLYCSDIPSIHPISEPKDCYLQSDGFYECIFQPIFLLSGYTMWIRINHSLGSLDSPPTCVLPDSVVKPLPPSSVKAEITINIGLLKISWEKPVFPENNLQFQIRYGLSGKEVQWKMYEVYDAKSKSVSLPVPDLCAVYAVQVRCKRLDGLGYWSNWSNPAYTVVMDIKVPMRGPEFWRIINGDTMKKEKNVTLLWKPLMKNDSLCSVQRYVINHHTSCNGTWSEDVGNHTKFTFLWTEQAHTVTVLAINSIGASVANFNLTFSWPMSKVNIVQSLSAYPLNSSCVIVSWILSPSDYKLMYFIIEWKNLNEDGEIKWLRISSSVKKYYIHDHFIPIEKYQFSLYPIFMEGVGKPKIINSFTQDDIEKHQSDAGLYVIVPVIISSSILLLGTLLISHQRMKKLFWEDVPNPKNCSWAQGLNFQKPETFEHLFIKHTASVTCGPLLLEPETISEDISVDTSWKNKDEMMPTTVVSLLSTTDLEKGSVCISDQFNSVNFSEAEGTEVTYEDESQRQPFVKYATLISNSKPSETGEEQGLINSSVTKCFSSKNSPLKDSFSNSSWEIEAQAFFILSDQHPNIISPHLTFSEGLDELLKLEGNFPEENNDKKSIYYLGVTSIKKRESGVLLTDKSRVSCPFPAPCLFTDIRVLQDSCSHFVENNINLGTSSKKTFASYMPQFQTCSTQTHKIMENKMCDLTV

[2] = biological target: T1, GLUT4
[3] = biological target: Leptin Receptor, long form, P48357
Leptin Receptor, long form, P48357, sequence (P48357 22-1165): as above

[4] = biological target: mutated form of the insulin receptor, deletion of residues 713 to 740 (human, UniProt P06213 28-1382)
[5] = biological target: human insulin receptor (human, UniProt P06213 28-1382)

percent internalized receptor at 5 min with 10 µM peptide (125I-insulin, acid wash) [4] [%]	percent internalized receptor at 15 min with 10 µM peptide (125I-insulin, acid wash) [4] [%]	percent internalized receptor at 30 min with 10 µM peptide (125I-insulin, acid wash) [4] [%]	percent internalized receptor at 60 min with 10 µM peptide (125I-insulin, acid wash) [4] [%]	percent internalized receptor at 5 min with 10 µM peptide (125I-insulin, acid wash) [5] [%]	percent internalized receptor at 15 min with 10 µM peptide (125I-insulin, acid wash) [5] [%]	percent internalized receptor at 30 min with 10 µM peptide (125I-insulin, acid wash) [5] [%]	percent internalized receptor at 60 min with 10 µM peptide (125I-insulin, acid wash) [5] [%]	Molecule	further results
–	–	–	–	–	–	–	–	Leptin (from UniProt P41159 22-167) (ligand)	activation (phosphorylation) of JAK2 with 1 ng/ml of OB alone, quantified western blot (arbitrary units) [1]: 2
–	–	–	–	–	–	–	–	TWLGRQGPEGPSSIPPGTLTTLW [GLUT4pep]	enhancement of glucose uptake in rat adipose cells, 10 nM insulin + GLUT4pep [2]: 24 fold
–	–	–	–	–	–	–	–	KKENKIVPSKEIVWWMNLAEKIP [Leptin Receptor derived peptide]	activation (phosphorylation) of JAK2 with 1 ng/ml of OB and 30 µM LRp together, quantified western blot (arbitrary units) [3]: 16; activation (phosphorylation) of JAK2 with 30 µM LRp alone, quantified western blot (arbitrary units) [3]: 8
-1	0	2	1	5	9	14	17	GNEQSFRVDLRTLLRYAGGGNEQSFRVDLRTLLRYA [DS-A85]	–
5	-2	0	2	6	2	6	2	KTDSQILKELEESSFRKTFEDYLH [Insulin receptor derived peptide]	enhancement of glucose uptake in rat adipose cells, insulin + 10 µM pepIR [2]: 12 fold

— patent publication US20020160013A1 (RECEPTRON, published 2002)
